Experimental findings from article PMC9061725, “GGDEF domain as spatial on-switch for a phosphodiesterase by interaction with landmark protein HubP” (NPJ Biofilms and Microbiomes, 2022) are described below.

Sequences and labels used below:
B1: MBP-GGDEF_(SoPdeB), GGDEF domain of S. oneidensis PdeB, wild type (domain or fragment, UniProt Q8EJM6 454-587, looked up)
chain: RSLAVCYLDLEQFKLINDSCGHTAGDRMLAMVARAIQSCLGPQELLARIGGDEFGLVICDRTALAVAQLLKQIIAQVSLQVLHDKNCNYKVGLSIGVAFGRAPYINAQELLKDADIACIAAKAKGTNQIHIYDD
notes: GGDEF (diguanylate cyclase) domain of the phosphodiesterase PdeB of Shewanella oneidensis; construct limits may stand there; The MBP tag is named for SEC, iSCAMS and pull-down; also called SoGGDEF; SoGGDEF_(PdeB); source: E. coli BL21(DE3), pET24c, purified (His Trap, SEC)
B2: SoGGDEF_(PdeB) K575S (domain or fragment, S. oneidensis, UniProt Q8EJM6 454-587, looked up)
chain: B1 chain with K122S
notes: GGDEF domain of PdeB of Shewanella oneidensis with K575S; Variant of m1; the methods of the pull-down call the GGDEF variants MBP-tagged; source: E. coli BL21(DE3), pET24c, purified (His Trap, SEC)
B3: SoGGDEF_(PdeB) K577S (domain or fragment, S. oneidensis, UniProt Q8EJM6 454-587, looked up)
chain: B1 chain with K124S
notes: GGDEF domain of PdeB of Shewanella oneidensis with K577S; Variant of m1; the methods of the pull-down call the GGDEF variants MBP-tagged; source: E. coli BL21(DE3), pET24c, purified (His Trap, SEC)
B4: FimV domain of S. oneidensis HubP (domain or fragment)
chain: FVPEHDLTHFQNEHGYIDIEKLLNDAEQDSVETDLYPEMDVEMSDVGALIGDAAMIDVDDEENSVNAKLDLARAYIEIDDSDSAKALLREVQIDGNDRQQEEAARLLKEMS
modifications: biotinylated with EZ-Link NHS-PEG4-biotin (for the BLI assay only)

The target in assay [1] is FimV domain of S. putrefaciens HubP (S. putrefaciens).
A further assay concerns the target T1, MshE-N (Shewanella putrefaciens, UniProt A0ABX8XDM4).
T1 construct: gene tadA; N-terminal domain aa 2-145, His-tag purified from E. coli BL21(DE3); strain inferred from locus prefix Sputcn32
Description: isothermal titration calorimetry. To be noted: 25 °C; one set of binding sites; value only in figure; read-out: dissociation constant. From the text:
isothermal titration calorimetry on MshE-N | both MshE and MshE-N bind c-di-GMP with high affinity
In general terms: In ITC the heat of successive injections is recorded.

The target in another assay is T2, MshE (Shewanella putrefaciens, UniProt A0ABX8XDM4).
T2 construct: gene tadA; full-length, His-tag purified from E. coli BL21(DE3); strain inferred from locus prefix Sputcn32
T2 sequence (A0ABX8XDM4 1-586): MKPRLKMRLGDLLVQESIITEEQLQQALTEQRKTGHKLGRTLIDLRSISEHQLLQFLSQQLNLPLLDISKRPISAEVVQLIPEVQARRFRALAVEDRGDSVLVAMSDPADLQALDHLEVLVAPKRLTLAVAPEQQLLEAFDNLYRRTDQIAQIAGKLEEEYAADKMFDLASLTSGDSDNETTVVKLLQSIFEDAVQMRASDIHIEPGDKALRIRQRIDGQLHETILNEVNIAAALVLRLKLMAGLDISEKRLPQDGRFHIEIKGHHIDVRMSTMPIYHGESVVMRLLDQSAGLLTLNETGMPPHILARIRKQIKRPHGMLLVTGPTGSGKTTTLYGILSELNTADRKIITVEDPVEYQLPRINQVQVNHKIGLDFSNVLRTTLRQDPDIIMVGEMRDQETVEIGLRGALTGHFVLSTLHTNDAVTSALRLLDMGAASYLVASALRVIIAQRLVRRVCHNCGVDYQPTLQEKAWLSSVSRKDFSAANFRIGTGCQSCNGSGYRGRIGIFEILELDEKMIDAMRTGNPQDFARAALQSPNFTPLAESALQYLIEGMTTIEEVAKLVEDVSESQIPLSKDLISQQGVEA
The experiment in a line: isothermal titration calorimetry. The conditions noted are these: 25 °C; one set of binding sites; value only in figure; read-out: dissociation constant. The source says: isothermal titration calorimetry on MshE | both MshE and MshE-N bind c-di-GMP with high affinity

For assay [2], the target named is T3, FimV domain of S. oneidensis HubP (S. oneidensis, biotinylated with EZ-Link NHS-PEG4-biotin (for the BLI assay only)).
T3 chain: B4 chain
Description: interferometric scattering mass spectrometry (iSCAMS, mass photometry); MBP-GGDEF_(SoPdeB)/FimV_(HubP) complex, samples prepared at 1 µM, low-salt HEPES buffer (20 mM HEPES, 50 mM NaCl, 50 mM KCl, 5 mM MgCl2, pH 7.5), room temperature. The conditions noted are these: both partners purified.

The target in assay [3] is T3, FimV domain of S. oneidensis HubP. The experiment in a line: BLI; biotinylated SoFimV held on streptavidin biosensors (BLITZ), SoGGDEF variants as analyte; medium salt HEPES buffer pH 7.5 for association only, high-salt Tris buffer pH 8 for association-dissociation. To be noted: both partners purified. On the technique in general: Biolayer interferometry detects binding as a change in optical thickness at a sensor tip.

The next assay has as its target T4, SoGGDEF_(PdeB) Q525S (S. oneidensis, UniProt Q8EJM6 454-587, Q525S).
T4 sequence: B1 chain with Q72S
Description: BLI.

In another assay the target is T5, SoGGDEF_(PdeB) G494A (S. oneidensis, UniProt Q8EJM6 454-587, G494A).
T5 sequence: B1 chain with G41A
Description: BLI.

For the next assay, the target named is T6, SoGGDEF_(PdeB) E497S (S. oneidensis, UniProt Q8EJM6 454-587, E497S).
T6 sequence: B1 chain with E44S
Description: BLI.

The target in the next assay is T7, SoGGDEF_(PdeB) K575S (S. oneidensis, UniProt Q8EJM6 454-587, K575S).
T7 sequence: B1 chain with K122S
The experiment in a line: BLI.

In another assay the target is T8, SoGGDEF_(PdeB) K577S (S. oneidensis, UniProt Q8EJM6 454-587, K577S).
T8 sequence: B1 chain with K124S
The experiment in a line: BLI.

Assay [4] has as its target B1. The experiment in a line: BLI; biotinylated SoFimV held on streptavidin biosensors (BLITZ), SoGGDEF variants as analyte; medium salt HEPES buffer pH 7.5 for association only, high-salt Tris buffer pH 8 for association-dissociation. The conditions noted are these: both partners purified.

Numbering of substitutions follows the chain as printed. Names may count otherwise.

In assay [1], “MBP-GGDEF_(PdeB), GGDEF domain of S. putrefaciens PdeB (domain or fragment)” gave a single-molecule tracking of PdeB-mVenus in S. putrefaciens cells: share of molecules statically confined to the cell pole of 84%.

Consider `Nc1nc2c(ncn2[C@@H]2O[C@@H]3CO[P@](=O)(O)O[C@H]4[C@@H](O)[C@H](n5cnc6c(=O)[nH]c(N)nc65)O[C@@H]4CO[P@](=O)(O)O[C@H]3[C@H]2O)c(=O)[nH]1` [c-di-GMP], for which the Kd at MshE-N came out at 4000 nM; on MshE, 9000 nM.

As for “S. putrefaciens PdeB-mVenus K527E/Q528S (natural protein)”, the single-molecule tracking of PdeB-mVenus K527E/Q528S in S. putrefaciens cells: share of static molecules in assay [1] amounted to 61%.

As to B1, the stoichiometry N (commonly a count of units in the complex or per binding partner) in [2] is ~1 GGDEF per FimV (2:2).

Consider B2, for which the “fold increase of KD against the wild type” value in assay [3] amounted to 100 fold.

For the molecule B3, the “fold increase of KD against the wild type” value in assay [3] was 10 fold.

With B4, the Kd was 592 nM with SoGGDEF_(PdeB) Q525S; 835 nM in the assay with SoGGDEF_(PdeB) G494A; 299 nM with SoGGDEF_(PdeB) E497S; 22000 nM with SoGGDEF_(PdeB) K575S; 2720 nM in the assay with SoGGDEF_(PdeB) K577S; about 200 nM in assay [4].
